Data taken from US11230579B2, “Method of treating BCL-2 over-expressing disorders using arts containing a BH3-like domain” (CARMEL-HAIFA UNIVERSITY ECONOMIC CORPORATION LTD., priority 2012, dated 2022).
“Also recorded” adds a separate entry of the source.

B1: ARTS: septin-like mitochondrial protein; human ARTS of 274 amino acid residues, GenBank Accession No. AF176379 (protein, listed as Homo sapiens)
chain: MIKRFLEDTTDDGELSKFVKDFSGNASCHPPEAKTWASRPQVPEPRPQAPDLYDDDLEFRPPSRPQSSDNQQYFCAPAPLSPSARPRSPWGKLDPYDSSEDDKEYVGFATLPNQVHRKSVKKGFDFTLMVAGESGLGKSTLVNSLFLTDLYRDRKLLGAEERIMQTVEITKHAVDIEEKGVRLRLTIVDTPGFGDAVNNTECWKPVAEYIDQQFEQYFRDESGLNRKNIQDNRVHCCLYFISPFGHGYGPSLRLLAPPGAVKGTGQEHQGQGCH

How the values were obtained:
BT-549 and HeLa cells = experiment: Cell fractionation: release of Bcl-2 and ARTS to the cytosol after STS; assay type: cell-based, human; details: 0.6 μM STS
Method: Cells were re-suspended in homogenization buffer [20 mM HEPES-KOH, pH 7.5, 10 mM KCl, 1.5 mM MgCl2, 1 mM sodium EDTA, 1 mM sodium EGTA and 1 mM DTT in the presence of 250 mM sucrose and protease inhibitors (Mini-Complete™, Roche)]. Cell homogenization was performed using a 26 G needle (Sterican® 0.45′25 mm, 26 G′1″, Gr.18, B. Braun #46507683) and 1 mL syringe (1 mL HSW NORMJECT®, Henke-Sass, Wolf GmbH #4010.200V0) using 20 strokes. Homogenates were centrifuged at 500×g for 5 min at 4° C., and the supernatant was centrifuged at 10000×g for 20 min to obtain mitochondria. The supernatant was considered as a cytosolic fraction.
Briefly, cells were harvested and centrifuged at 300×g for 10 min, washed in TBS 2.5 mM pH 7.5, and re-pelletted. Cells were permeabilized for 5 min on ice with cytosolic extraction buffer (250 mM sucrose, 70 mM KCl, 137 mM NaCl, 4.3 mM Na2HPO4, 1.4 mM KH2PO4 pH 7.2, 1× complete protease inhibitor cocktail, Roche) containing freshly prepared digitonin (200 μg/ml, D-5628, Sigma). Cytosolic fraction was isolated by collecting the supernatant after centrifugation at 1000×g for 5 min at 4° C. Cytosolic fraction was separated on a 12% acrylamide gel and transferred to nitrocellulose membranes.
It has been recently shown by some of the inventors that similarly to Bcl-2, ARTS resides at the MOM of living cells (Edison et al., 2012b). […]

HeLa cells = experiment: Immunofluorescence localization of Bcl-2 (mitochondria vs cytosol) after STS; assay type: cell-based, human
Method: To further determine the cellular localization of Bcl-2 under apoptotic and non-apoptotic conditions, Immunofluorescence assay was conducted.
Cells in which Bcl-2 is detected at mitochondria (co-localize with MitoTracker), or at the cytosol (showing diffused pattern of staining) were counted.

Bcl-2 [1] = experiment: In vivo ubiquitination assay of Bcl-2 in MEFs; assay type: cell-based, mouse; details: WT MEFs, transfected, MG132 for 6 h
Method: (§1) Cells were transiently transfected with different constructs as detailed herein and treated with MG132 (20 μM, Alexis) for 6 hours. The medium was aspirated and the cells were washed with 1×PBS at room temperature. The cells were scraped at room temperature in 100 μl of denaturation buffer (1% SDS, 140 mM NaCl, 50 mM Tris-HCl pH 7.4) containing protease inhibitor cocktail (Complete, Roche) and 10 mM NEM to preserve ubiquitine chains. The solution was transferred to 2 ml eppendorf tube. The cells were homogenized by passing through a 25-gauge needle (20 times), and boiled for 10 min after vigorous vortexing. An amount of 400 μl of renaturation buffer (2% TritonX-100, 140 mM NaCl, 50 mM Tris-HCl pH 7.4) containing protease inhibitor cocktail (Complete, Roche) and 10 mM NEM was added to the lysate. After 15 min of centrifugation (10,000 g, 4°), the supernatant was transferred into a clean eppendorf tube. The protein concentration was determined using BCA Protein Assay Kit (Pierce). Western blot analyses were performed following immunoprecipitation with particular antibody.
The possible in vivo ubiquitination of Bcl-2 occurring upon apoptotic induction was next tested in immortalized WT MEFs transiently transfected with Bcl-2, XIAP and ubiquitin and treated with 20 μM MG132 for 6 h. […]

Bcl-2 [2] = experiment: In vivo ubiquitination assay of Bcl-2 in HeLa cells; assay type: cell-based, human; details: HeLa cells transfected with Bcl-2, XIAP and ubiquitin, 20 μM MG132 6 h
Method: as §1
More specifically, HeLa or ARTS KD HeLa cells were transiently transfected with Bcl-2, XIAP and ubiquitin and treated with 20 μM MG132 for 6 h. […] The cells were harvested and subjected to immunoprecipitation (IP) using anti-Bcl-2 antibodies, followed by immune-blotting (IB) with anti-Bcl-2 antibodies.

Bcl-2 [3] = tested on: Bcl-2
Bcl-2 and XIAP = experiment: Immunoprecipitation with anti-ARTS monoclonal antibody in HeLa, BT-549 and COS-7 cells; assay type: binding; details: BT-549 and 6-Myc-ARTS transfected COS-7 cells
Method: (§2) Co immunoprecipitation was performed as previously described (Gottfried et al., 2004). Briefly, 10 μg of anti-ARTS antibody or 2 μg of anti-Bcl-2 or anti-XIAP antibody were added to the protein lysate and the samples were left rotating overnight at 4° C. On the following day, agarose beads conjugated to protein A/G (Santa Cruz) were added for 4 h. Samples were centrifuged at 4000 rpm, 4° C. for 5 min and washed three times with PBS. Proteins were eluted from beads following 5 min of boiling in sample buffer and separated on 12.5% SDS-PAGE gel, followed by Western blot analysis.

Bcl-XL = Bcl-XL (Homo sapiens, UniProt Q07817); experiment: IP with anti ARTS antibody in HeLa wt cells, Bcl-xL; assay type: binding; design: endogenous in cells; host or cells: HeLa wt cells
Sequence of Bcl-XL (Q07817 whole entry): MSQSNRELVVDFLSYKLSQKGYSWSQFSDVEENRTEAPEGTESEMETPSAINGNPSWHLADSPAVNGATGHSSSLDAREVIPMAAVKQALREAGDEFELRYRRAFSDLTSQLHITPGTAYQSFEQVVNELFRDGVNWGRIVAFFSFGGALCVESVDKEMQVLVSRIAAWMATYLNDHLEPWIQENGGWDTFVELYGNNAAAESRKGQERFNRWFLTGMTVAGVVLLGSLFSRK
Method: as §2
(§3) Further, HeLa wt cells were treated with ABT-263 25 μM for 24 h. 750 μg of total proteins were subjected to Immunoprecipitation (IP) assay using monoclonal mouse anti ARTS Antibody (Ab). Western Blot analysis was performed using Bcl-2, Bcl-xL, ARTS and Actin antibodies. […] This binding is still seen after 24 hours of treatment with ABT-263. The decrease in binding may be the result of lower levels of Bcl-2 and Bcl-xL known to be strongly degraded after 24 hours of apoptosis.

Bcl-2 [4] = experiment: Functional-structural pull-down assay with anti Bcl2 antibody in transfected HeLa cells; assay type: binding, human; details: pull-down with Bcl-2 antibodies
Method: HeLa cells were transiently transfected with Full length ARTS plasmid and 128 amino acids N′ terminus deletion of ARTS plasmid, for 24 hrs. The cells were extracted using RIPA-SDS lysis buffer. Immunoprecipitation was done by incubation of lysates overnight with anti Bcl2 antibody (BD), followed by precipitation done with protein A/G beads (Santa Cruz). Western blot analysis was performed using monoclonal anti ARTS antibody directed against its unique C terminus (Sigma).
In order to identify the Bcl-2 binding domain in ARTS, the inventors examined whether deletion of different fragments of ARTS, namely, the N-terminal 128 amino-acid residues may have an effect. Therefore, pull-down experiments were performed in HeLa cells transfected with either the full length ARTS or a deletion mutant thereof.

Bcl-2 [5] = experiment: Myc beads pull-down of ARTS and Bcl-2 in co-transfected COS-7 cells; assay type: binding; details: COS-7 cells co-transfected with Bcl-2 and ARTS
Method: (§4) COS-7 cells were co-transfected with different constructs as detailed herein. The cells were lysed in RIPA buffer (150 mM NaCl, 50 mM Tris-HCl (pH 8), 1% NP-40, 0.5% deoxycholate acid containing protease inhibitors (mini Complete, Roche)). The samples were left rotating overnight at 4° C. with the anti-Myc-beads (Santa Cruz). Samples were centrifuged at 4000 rpm, 4° C. for 5 min and washed four times in PBS. Proteins were eluted from beads following 5 min of boiling in sample buffer. Proteins were separate on 12.5% SDS-PAGE gel, followed by Western blot analysis.
The mechanism by which ARTS regulates Bcl-2 levels was further tested using a pull-down assay in COS-7 cells which were co-transfected with Bcl-2 and ARTS expression vectors. Pull-down assays were performed using agarose anti-myc beads followed by Western blot analysis using mouse anti-ARTS and anti-Bcl-2 antibodies.

XIAP and Bcl-2 = molecular target: T1, XIAP and Bcl-2 (Homo sapiens, UniProt P10415+P98170); experiment: Pull-down of myc-XIAP in COS-7 cells co-transfected with ARTS, flag-Bcl-2 and myc-XIAP; assay type: binding
T1 construct: expressed in transfected cells; host or cells: COS-7
T1 sequence (P98170 whole entry): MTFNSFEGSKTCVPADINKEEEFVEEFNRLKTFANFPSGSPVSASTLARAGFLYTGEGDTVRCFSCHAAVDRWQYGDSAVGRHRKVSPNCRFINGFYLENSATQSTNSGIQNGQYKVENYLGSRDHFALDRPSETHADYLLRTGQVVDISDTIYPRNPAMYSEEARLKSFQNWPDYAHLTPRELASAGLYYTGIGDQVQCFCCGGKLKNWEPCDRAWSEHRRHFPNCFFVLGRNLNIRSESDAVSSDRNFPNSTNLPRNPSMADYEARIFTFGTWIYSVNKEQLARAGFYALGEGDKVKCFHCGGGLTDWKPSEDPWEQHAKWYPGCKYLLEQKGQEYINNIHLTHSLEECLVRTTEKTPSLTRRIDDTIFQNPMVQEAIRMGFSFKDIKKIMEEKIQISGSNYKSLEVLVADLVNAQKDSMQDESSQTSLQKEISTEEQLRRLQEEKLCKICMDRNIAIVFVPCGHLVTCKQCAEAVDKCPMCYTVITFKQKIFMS
T1 sequence (P10415 whole entry): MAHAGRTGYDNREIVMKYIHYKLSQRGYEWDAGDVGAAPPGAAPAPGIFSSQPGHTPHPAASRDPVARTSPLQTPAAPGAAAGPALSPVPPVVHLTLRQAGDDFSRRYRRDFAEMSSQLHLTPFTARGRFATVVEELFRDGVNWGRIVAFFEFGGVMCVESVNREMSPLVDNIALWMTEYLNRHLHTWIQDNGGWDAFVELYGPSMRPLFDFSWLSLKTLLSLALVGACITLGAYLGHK
Method: as §4
Further understanding and evaluation of the relative contribution of ARTS to the formation of a complex with Bcl-2 and XIAP was obtained by over-expressing ARTS, Bcl-2, and XIAP alone or all together in COS-7 cells, which contain relatively small amounts of endogenous ARTS.
FIGS. 5A and 5B show results of COS-7 cells (pull down and lysates) transiently co-transfected with combinations of ARTS, flag-Bcl-2, and myc-XIAP constructs. Pull-down of XIAP was performed using anti-myc beads, and the precipitate was subjected to western blot analyses. […] This weak binding was attributed to the presence of low endogenous levels of ARTS in these COS-7 cells resulting in almost no formation of the complex.

Bcl-2 [6] = experiment: Bimolecular Fluorescence Complementation (BiFC) with flow cytometry, ARTS and Bcl-2; assay type: binding, human; details: living cells, 30 minutes after apoptotic induction, data not shown
Text: (§5) The Bimolecular Fluorescence Complementation (BiFC) assay, provides a simple and direct way to visualize protein-protein interactions in real-time and in living cells. The method is based on formation of a fluorescent complex through the association of two fragments of a fluorescent protein, brought together by an interaction between proteins fused to the fragments. This method is especially attractive because the Green fluorescent protein (GFP) or Yellow fluorescent protein (YFP) chromophore forms spontaneously on protein folding in virtually every cell type tested (Kerppola, 2006).
(§6) Direct binding between [ARTS and Bcl-2] and [XIAP and Bcl-2] was examined using the BiFC system. […]
(§7) Transfection was performed using 200 ng of each plasmid together with 50 ng of pdsRED plasmid which served as control for transfection efficiency. […] Flow cytometry analyses of cell suspensions were performed using a fluorescence-activated cell sorter (FACSCantoII; BD Biosciences) equipped with an argon laser emitting at 488 nm. […] Results were analyzed using […] software (BD Biosciences). A ratio between YFP fluorescence and Red fluorescence was calculated for each time point.
(§8) To further investigate the binding relationships within this complex, the split-Venus, Bimolecular Fluorescence Complementation (BiFC) system was used. […]

XIAP [7] = molecular target: T2, XIAP (Homo sapiens, UniProt P98170); details: in vitro and in vivo; cited from earlier work
T2 sequence (P98170 whole entry): as the sequence (P98170 whole entry) above

XIAP [8] = molecular target: T2, XIAP; experiment: Bimolecular Fluorescence Complementation (BiFC) with flow cytometry, ARTS and XIAP; assay type: binding; design: expressed in transfected cells; host or cells: HeLa; details: living cells, 30 minutes after apoptotic induction, data not shown
Text: as §5, §6, §7, §8

Bcl-2 [9] = experiment: IP with anti ARTS antibody in HeLa wt cells, Bcl-2; assay type: binding, human
Method: as §2, §3

Bcl-2 [10] = experiment: Over-expression of ARTS in COS-7 cells, Bcl-2 levels by Western blot and densitometry; assay type: cell-based; details: COS-7 cells, transient transfection
Text: For transient transfections jetPEI™ (Polyplus Transfection) and Transfectol (GeneChoice) reagents were used according to the manufacturers' instructions.
To determine whether ARTS promotes apoptosis by regulating the levels of Bcl-2, the inventors first over-expressed ARTS in COS-7 cells. More specifically, COS-7 cell were transiently transfected with ARTS, Bcl-2 or empty vector or co-transfected with both constructs.

Row | Molecule | time at which Bcl-2 and ARTS are found in the cytosol after apoptosis induction (BT-549 and HeLa cells) [min] | cells exhibiting Bcl-2 in the cytosol (HeLa cells; HeLa cells transfected with Bcl-2, 180 minutes of STS treatment) [%] | cells exhibiting Bcl-2 in their cytosol (HeLa cells; HeLa cells transfected with Bcl-2, sixty minutes following STS treatment) [%] | polyubiquitinated forms of Bcl-2 following apoptotic induction (Bcl-2 [1]) | time of appearance of Bcl-2 polyubiquitinated forms (Bcl-2 [1]) [min] | time at which poly-ubiquitinated forms of Bcl-2 are seen (Bcl-2 [2]; 1.5 μM STS) [min] | poly-ubiquitinated forms of Bcl-2 after induction of apoptosis (Bcl-2 [2]; 1.5 μM STS 0.5 h) | Bcl-2 levels (Bcl-2 [3]; HeLa cells, 60 and 180 minutes treatments with STS) | Bcl-2 levels upon induction of apoptosis (Bcl-2 [3]; different cell lines and mouse embryonic fibroblasts (MEFs), Western blot) | complex of ARTS, Bcl-2 and XIAP (Bcl-2 and XIAP) | binding to Bcl-xL in living cells (Bcl-XL) | binding to Bcl-2 (Bcl-2 [4]) | complex with Bcl-2 (Bcl-2 [5]) | ability of XIAP to bind to Bcl-2 on over-expression of ARTS (XIAP and Bcl-2) | binding to Bcl-2 (BiFC fluorescence) (Bcl-2 [6]) | binding to XIAP (XIAP [7]) | binding to XIAP (BiFC fluorescence) (XIAP [8]) | binding to Bcl-2 in living cells (Bcl-2 [9]) | Bcl-2 levels on over expression (Bcl-2 [10])
1 | CN[C@@H]1C[C@H]2O[C@@](C)([C@@H]1OC)n1c3ccccc3c3c4c(c5c6ccccc6n2c5c31)C(=O)NC4 [STS, staurosporine] | 2 to 15 | 94 | 63 | accumulation of polyubiquitinated forms of Bcl-2; also recorded: accumulation of poly-ubiquitinated forms of Bcl-2; also recorded: poly-ubiquitinated forms of Bcl-2 detected | ≤ 30 | ≤ 30 | significant accumulation of poly-ubiquitinated forms of Bcl-2 | decrease in Bcl-2 levels | down regulated | – | – | – | – | – | – | – | – | – | –
2 | B1 | – | – | – | – | – | – | – | – | – | form a complex | binds | binds to Bcl-2 | forms a complex with Bcl-2 | significantly increased | Strong binding | binds directly to XIAP | Strong binding | binds | reduction in Bcl-2 levels
